Changes are numbered by the printed parent chain. Numbers in names are those of the source.
Legend:
[1] = test system: PDE activity in GH4C1 cells; test: Effect of PDE inhibitors, forskolin and VIP on cAMP levels (Ca2+ influx through CNG channels); format: cell-based, rat; conditions: C460W/E583M channels
Procedure: To further test the utility of this approach, PDE activity in excitable GH4C1 pituitary cells was examined. In all of the experiments shown (See, FIGS. 13-14, and Table 2), 1 μM nimodipine was added at time zero to block Ca^2+ influx though voltage-gated Ca^2+ channels (triggered by membrane depolarization due to Ca^2+ and Na^+ influx through CNG channels). […] FIGS. 13 and 14 each depict experiments done on a single batch of cells. As before, similar results were obtained on three other batches. In the experiments that produced the data shown in Table 2, cAMP concentrations were monitored using Ca^2+ influx through C460W/E583M channels. […] Either 100 μM IBMX or vehicle (-IBMX; control) were added at time zero. Then, 50 μM forskolin were added at 180 seconds d(ΔF/F0)/dt, which is proportional to the Ca^2+ influx rate, was estimated as described in the Examples. Data are provided as mean±standard error. IBMX or vehicle was added at 60 seconds (first arrow in FIG. 13). Either 10 μM forskolin or 100 nM VIP were added at 240 seconds (second arrow in FIG. 13). In the absence of IBMX, large forskolin or VIP-induced increases in Ca^2+ influx were observed. […] This level of basal AC activity was quite different from that observed in HEK-293 cells (See, FIGS. 9 and 10). 1 μM nimodipine was added at time 0 to block endogenous voltage-gated Ca^2+ channels.
To identify the PDE family or families that regulate the local cAMP concentration in GH4C1 cells, cAMP accumulation was monitored in the presence and absence of PDE inhibitors (See, Table 2). Again, the high cAMP affinity C460W/E583M channels were used. PDE inhibitors were added at 60 s. Although the addition of IBMX alone triggered Ca^2+ influx, 10 μM forskolin were added at 240 s as a positive control for CNG channel activity. […] This PDE is likely to have a low Km for cAMP because it is capable of regulating cAMP at concentrations too low for the WT or Δ61-90/C460W/E583M channels to detect. Thus, it is contemplated that a Ca^2+-CaM stimulated PDE (type I) is primarily responsible for controlling basal cAMP signals in GH4C1 cells.
In addition, PDE activity was monitored using Δ61-90/C460W/E583M channels to detect changes in cAMP concentration (See, FIG. 14). PDE inhibitors and forskolin were added as described above. With this construct, it was not possible to observe changes in cAMP concentration due to inhibition of PDE activity alone. […] Inhibitors specific to other PDE types had no effect on the forskolin-induced Ca^2+ influx (data not shown). […] It is contemplated that Ca^2+ influx through the C460W/E583M channels was saturated at cAMP concentrations below the Km for this PDE. Thus, it is contemplated that there are two different PDE types that regulate local cAMP signals in GH4C1 cells: a low Km, 8-methoxymethyl-IBMX sensitive PDE (type I); and a high Km, RO-20-1724-, rolipram-sensitive PDE (type IV).
GH4C1 rat pituitary cells (ATCC) were maintained in 13 mL Ham's F-10 medium (Life Technologies) supplemented with 14.3 mM NaHCO3, 15% donor horse serum (Gemini), and 2.5% fetal bovine serum, pH 6.8, in 75 cm^2 flasks at 37° C. in a humidified atmosphere of 95% air and 5% CO2. Cells were split weekly (1:4) and washed with fresh medium twice weekly. Cells were plated at ˜60% confluence in 100 mm culture dishes twenty-four hours prior to infection with the CNG-channel-encoding adenovirus constructs (multiplicity of infection=50 plaque forming units per cell). Forty-eight hours post-infection cells were detached, resuspended in serum-containing medium, and assayed within 12 hours.
In this Example, experiments conducted to examine the response of excitable GH4C1 pituitary cells to stimulation by either forskolin or the hormone vasoactive intestinal peptide (VIP), in the presence of absence of PDE inhibitors are described. […]

PDE III = conditions: cited from earlier work
[2] = test system: HEK-293 cells expressing CNG channels; test: Forskolin-induced cAMP accumulation monitored by Ca2+ influx (fura-2) through expressed CNG channels; format: cell-based, human
Procedure: Next, experiments were conducted to assess the ability of each channel construct to detect increases in local cAMP concentration. Changes in cAMP concentration were detected using fura-2 to monitor Ca^2+ influx through CNG channels, as described in the Examples. Ca^2+ influx induced by different concentrations of forskolin, an AC activator, in the presence of 100 μM IBMX, a nonselective PDE inhibitor was measured. This approach allowed comparisons to be made between the cAMP sensitivities of the different channels to changes in cAMP, regardless of variations in expression levels between experiments. In HEK-293 cells expressing the WT channel, addition of forskolin was followed by a brief delay and an increase in Ca^2+ influx (See, FIG. 7, Panel A). The delay decreased and the rate of Ca^2+ influx increased in a dose-dependent manner. Neither effect was saturated at 50 μM forskolin. In cells expressing the E583M channel, addition of forskolin was also followed by a brief delay and an increase in Ca^2+ influx (FIG. 7, Panel B). As with the WT channel, the delay and the initial rate of Ca^2+ influx were dose-dependent. […] In cells expressing the Δ61-90/C460W/E583M channel, addition of forskolin caused similar increases in Ca^2+ influx as the E583M channel, including saturation of the delay and rate of influx at 20 μM (compare FIG. 7, Panel B with FIG. 7, Panel D). The increased response of the modified channels to forskolin treatment is consistent with the apparent cAMP affinities measured in excised patches in the absence of Ca^2+-CaM (C460W/E583M>E583M˜Δ61-90/C460W/E583>WT channels). There are several factors that may have contributed to the apparent lack of a Ca^2+-CaM effect on the channels.
Briefly, HEK-293 were maintained in MEM (Life Technologies Inc.) supplemented with 26.2 mM NaHCO3, 10% (v/v) fetal bovine serum (Gemini), penicillin (50 μg/mL), and streptomycin ([…]), pH 7.0, at 37° C. in a humidified atmosphere of 95% air and 5% CO2. Cells were plated at ˜60% confluence in 100 mm culture dishes twenty-four hours prior to infection with the CNG-channel-encoding adenovirus constructs (multiplicity of infection=10 plaque forming units per cell). […] Twenty-four hours post-infection cells were detached with phosphate-buffered saline containing 0.03% EDTA, resuspended in serum-containing medium, and assayed within 12 hours.

[3] = test system: rat olfactory CNG channel α subunit; test: Excised inside-out patch recordings, cyclic nucleotide dose-response of CNG channel constructs; format: biochemical; conditions: for Imax^cGMP/Imax^cAMP: current at saturating cGMP divided by current at saturating cAMP
Procedure: As described in greater detail herein, the effects of modifications to CNG channels were assessed using the Hill equation, I/Imax=[cNMP]^N/([cNMP]^N+K1/2^N), where I/Imax is the fraction of maximal current, cNMP represents cyclic nucleotide, K1/2 is the concentration that gives half-maximal current, and N is the Hill coefficient, an index of cooperativity. I/Imax^cGMP/Imax^cAMP is the current induced by saturating cGMP divided by the current induced by saturating cAMP. Data (mean±standard deviation of three experiments) were obtained from excised membrane patches using standard patch clamp techniques.
To assess the cyclic nucleotide sensitivity of different CNG channel constructs, excised, inside-out patch recordings were made at room temperature (20-21° C.) using an Axopatch-200A patch clamp amplifier (Axon Instruments Inc.). Pipettes were pulled from borosilicate glass and heat polished. Pipettes were lowered onto the cells and gigaohm seals were formed. Patches were excised by shearing cells from the pipette with a jet of liquid. Ionic currents were elicited by 250 ms pulses to membrane potentials of +50 and −50 mV from a holding potential of 0 mV. Current records were sampled at five times the filter setting and stored on an IBM compatible computer. Records were corrected for errors due to series resistance (pipette resistance was 4.1 ±0.1 MΩ). Both the pipette and bath solutions contained (mM): 130 NaCl, 2 HEPES, 0.02 EDTA, and 1 EGTA, pH 7.6. Cyclic nucleotide-induced currents were obtained from the difference between currents in the presence and absence of cyclic nucleotides. Dose response curves for cAMP and cGMP were obtained at +50 and −50 mV in the same patch. The effects of the modifications were assessed using the Hill equation, I/Imax=[cNMP]^N/([cNMP]^N+K1/2^N), where I/Imax is the fraction of maximal current, cNMP represents cyclic nucleotide, K1/2 is the concentration that gives half-maximal current, and N is the Hill coefficient, an index of cooperativity. K1/2 and N for cAMP were 36±5 μM, 10±2 μM, 1.0±0.3 μM, and […] for WT, E583M, C460/E583M, and Δ61-90/C460W/E583M channels, respectively (See, Rich et al., J. Gen. Physiol. [2001], supra).
The cyclic nucleotide sensitivity of the C460W/E583M CNG channel was assessed in excised, inside-out patches as known in the art (See, Rich et al. [2001], supra). K1/2 and N were 1.1±0.3 μM and 2.1±0.4 at +50 mV; and 1.0±0.3 μM and 2.0 ±0.3 at −50 mV (n=11). With these values, the cAMP concentration could be calculated from currents measured in perforated patch experiments (Rich et al. Proc. Natl. Acad. Sci. [2001], supra).

C[C@@H]1C(=O)NC2=Nc3cccc(Cl)c3CN21 [Quazinone]
d(ΔF/F0)/dt ([1]; basal cAMP, inhibitor concentration (μM)): 0 s⁻¹ | IC50 (PDE III): 600 nM

C=C[C@@]1(C)CC(=O)[C@]2(O)[C@@]3(C)[C@@H](O)CCC(C)(C)[C@@H]3[C@H](O)[C@H](OC(C)=O)[C@@]2(C)O1 [forskolin]
forskolin-induced increase in cAMP concentration averaged throughout the accessible cell volume [2]: 1 to 2 µM | forskolin-induced increase in cAMP concentration measured using CNG channels ([2]; local, near plasma membrane): > 25 µM

vasoactive intestinal peptide [VIP]
cAMP accumulation and Ca2+ influx after AC stimulation ([1]; 10 μM forskolin or 100 nM VIP after IBMX or vehicle): caused additional cAMP accumulation and Ca^2+ influx

B1: E583M: modified rat olfactory cyclic nucleotide-gated ion channel containing the E583M mutation, SEQ ID NO:5 (protein, listed as Rattus norvegicus)
chain: MMTEKSNGVKSSPANNHNHHPPPSIKANGKDDHRAGSRPQSVAADDDTSPELQRLAEMDTPRRGRGGFQRIVRLVGVIRDWANKNFREEEPRPDSFLERFRGPELQTVTTHQGDDKGGKDGEGKGTKKKFELFVLDPAGDWYYRWLFVIAMPVLYNWCLLVARACFSDLQRNYFVVWLVLDYFSDTVYIADLIIRLRTGFLEQGLLVKDPKKLRDNYIHTLQFKLDVASIIPTDLIYFAVGIHSPEVRFNRLLHFARMFEFFDRTETRTSYPNIFRISNLVLYILVIIHWNACIYYVISKSIGFGVDTWVYPNITDPEYGYLAREYIYCLYWSTLTLTTIGETPPPVKDEEYLFVIFDFLIGVLIFATIVGNVGSMISNMNATRAEFQAKIDAVKHYMQFRKVSKDMEAKVIKWFDYLWTNKKTVDEREVLKNLPAKLRAEIAINVHLSTLKKVRIFQDCEAGLLVELVLKLRPQVFSPGDYICRKGDIGKEMYIIKEGKLAVVADDGVTQYALLSAGSCFGEISILNIKGSKMGNRRTANIRSLGYSDLFCLSKDDLMEAVTEYPDAKKVLEERGREILMKMGLLDENEVAASMEVDVQEKLEQLETNMDTLYTRFARLLAEYTGAQQKLKQRITVLETKMKQNHEDDYLSDGINTPEPTAAE
Imax^cGMP/Imax^cAMP ([3]; +50 mV): 0.40 ± 0.10 | Imax^cGMP/Imax^cAMP ([3]; −50 mV): 0.35 ± 0.16 | current elicited by saturating cGMP as % of the current elicited by saturating cAMP ([3]; excised patches): ~40% | forskolin concentration at which delay and rate of Ca2+ influx saturated ([2]; 100 μM IBMX, forskolin 0-50 μM): 20 µM

B2: WT: wild-type rat olfactory cyclic nucleotide gated channel α subunit, amino acid sequence SEQ ID NO:8 (protein, listed as Rattus norvegicus)
chain: B1 chain with M583E
Imax^cGMP/Imax^cAMP ([3]; +50 mV): 1.0 | Imax^cGMP/Imax^cAMP ([3]; −50 mV): 1.0

From patent US7341836B2, “Modified cyclic nucleotide gated ion channels” (The Regents of the University of Colorado, priority 2001, dated 2008)
